Data taken from US20020127645A1.

Molecular target: dimeric mouse-human chimeric IgA1 specific for the hapten dansyl (human) (UniProt P01876)
Experiment: densitometry of secreted proteins after immunoprecipitation and SDS-PAGE

Sequence of UniProt P01876 (P01876 other isoform, or with tags, fused parts or gaps mutant, chain 1 of 2, other chains not shown): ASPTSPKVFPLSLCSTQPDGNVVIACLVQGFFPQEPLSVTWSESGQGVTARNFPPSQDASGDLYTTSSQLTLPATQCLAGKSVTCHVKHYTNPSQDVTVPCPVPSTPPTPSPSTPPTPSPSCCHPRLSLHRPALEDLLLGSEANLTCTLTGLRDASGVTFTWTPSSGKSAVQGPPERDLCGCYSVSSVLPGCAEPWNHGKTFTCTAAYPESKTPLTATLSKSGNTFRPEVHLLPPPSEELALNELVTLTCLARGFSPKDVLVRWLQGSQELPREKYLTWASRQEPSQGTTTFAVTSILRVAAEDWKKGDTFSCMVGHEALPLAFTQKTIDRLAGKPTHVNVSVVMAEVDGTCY

human secretory component (SC), ectoplasmic domain of the human polymeric Ig receptor (pIgR) ending at Glu589 (from UniProt P01833 19-607)
α chains per molecule of SC (stoichiometry) (α chains per SC): 4
